T1: human CCR7 A315G fused to YPet (human, UniProt P32248 25-378, A315G)
T1 construct: chemokine receptor CCR7, human (hCCR7), point mutant A315G; also called hCCR7-YPet A315G; source: HeLa, transiently transfected (pcDNA3 hCCR7-YPet A315G), on cells; not shown: YPet, C-terminal, kept
T1 sequence (looked up): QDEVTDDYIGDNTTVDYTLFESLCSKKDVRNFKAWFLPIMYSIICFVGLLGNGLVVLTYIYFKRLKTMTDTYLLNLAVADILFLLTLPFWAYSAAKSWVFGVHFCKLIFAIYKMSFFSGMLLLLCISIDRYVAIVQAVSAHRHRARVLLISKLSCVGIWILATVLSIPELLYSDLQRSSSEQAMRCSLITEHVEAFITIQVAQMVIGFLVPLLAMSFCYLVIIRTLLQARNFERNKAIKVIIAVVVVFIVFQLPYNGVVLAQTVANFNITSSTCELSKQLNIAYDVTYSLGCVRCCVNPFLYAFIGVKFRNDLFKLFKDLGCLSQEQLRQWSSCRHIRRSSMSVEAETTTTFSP

T2: human CCR7 L325S fused to YPet (human, UniProt P32248 25-378, L325S)
T2 construct: chemokine receptor CCR7, human (hCCR7), point mutant L325S; also called hCCR7-YPet L325S; source: HeLa, transiently transfected (pcDNA3 hCCR7-YPet L325S), on cells; not shown: YPet, C-terminal, kept
T2 sequence (looked up): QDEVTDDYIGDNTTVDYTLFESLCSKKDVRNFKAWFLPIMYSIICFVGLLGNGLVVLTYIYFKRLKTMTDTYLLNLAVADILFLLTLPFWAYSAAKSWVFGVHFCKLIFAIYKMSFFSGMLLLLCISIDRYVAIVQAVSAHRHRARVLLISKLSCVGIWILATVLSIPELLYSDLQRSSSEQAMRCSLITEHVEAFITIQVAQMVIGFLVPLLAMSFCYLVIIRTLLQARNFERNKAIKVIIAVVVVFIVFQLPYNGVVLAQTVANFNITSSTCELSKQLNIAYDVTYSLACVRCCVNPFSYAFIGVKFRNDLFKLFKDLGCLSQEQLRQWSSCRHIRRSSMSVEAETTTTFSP

T3: human CCR7 wild-type fused to YPet (hCCR7-YPet) (human, UniProt P32248 25-378)
T3 construct: chemokine receptor CCR7, human (hCCR7); also called CCR7 WT; wild-type CCR7; source: HeLa, transiently transfected (pcDNA3 hCCR7-YPet), on cells; not shown: YPet, C-terminal, kept
T3 sequence (looked up): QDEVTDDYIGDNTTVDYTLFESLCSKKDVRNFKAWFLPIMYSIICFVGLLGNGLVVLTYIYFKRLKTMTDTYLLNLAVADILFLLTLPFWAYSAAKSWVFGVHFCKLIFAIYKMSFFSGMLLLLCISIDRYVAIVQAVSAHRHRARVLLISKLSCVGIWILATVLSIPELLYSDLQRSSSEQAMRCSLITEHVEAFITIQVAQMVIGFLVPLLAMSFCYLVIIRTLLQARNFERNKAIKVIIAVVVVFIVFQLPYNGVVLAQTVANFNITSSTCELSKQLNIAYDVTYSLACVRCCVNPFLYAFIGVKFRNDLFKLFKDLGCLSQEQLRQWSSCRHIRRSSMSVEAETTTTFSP

T4: human CCR7 SNP V317I fused to YPet (human, UniProt P32248 25-378, V317I)
T4 construct: chemokine receptor CCR7, human (hCCR7), naturally occurring SNP V317I; also called CCR7 V317I; hCCR7-YPet V317I; source: HeLa, transiently transfected (pcDNA3 hCCR7-YPet V317I), on cells; not shown: YPet, C-terminal, kept
T4 sequence (looked up): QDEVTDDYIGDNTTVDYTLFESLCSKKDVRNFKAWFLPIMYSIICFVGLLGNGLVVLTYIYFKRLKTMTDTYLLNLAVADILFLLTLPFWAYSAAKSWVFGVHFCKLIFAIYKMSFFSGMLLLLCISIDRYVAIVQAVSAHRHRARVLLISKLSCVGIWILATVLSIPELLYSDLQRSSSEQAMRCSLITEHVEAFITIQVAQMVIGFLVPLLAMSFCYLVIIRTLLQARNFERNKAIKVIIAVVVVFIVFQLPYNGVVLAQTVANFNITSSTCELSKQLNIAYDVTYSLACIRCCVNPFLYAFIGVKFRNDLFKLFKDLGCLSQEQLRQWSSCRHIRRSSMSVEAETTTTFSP


What was measured:
Details in all cases: one partner purified
[1] = target: T1, human CCR7 A315G fused to YPet; test: flow cytometry on cells; HeLa cells transiently expressing YPet-tagged CCR7 variants incubated at 4 °C for indicated times with 25 nM CCL19-S6^649P1, washed, MFI (chemokine binding)
[2] = target: T2, human CCR7 L325S fused to YPet; test: as above
[3] = target: T3, human CCR7 wild-type fused to YPet …; test: flow cytometry on cells; competition: HeLa cells transiently expressing YPet-tagged CCR7 variants, 37 °C, 30 min, 25 nM CCL19-S6^649P1 with graded concentrations of native unlabelled hCCL19; MFI (binding and uptake)
[4] = target: T4, human CCR7 SNP V317I fused to YPet; test: as above
[5] = target: T1, human CCR7 A315G fused to YPet; test: as above
[6] = target: T2, human CCR7 L325S fused to YPet; test: as above

Binder	fold fluorescence of bound CCL19-S6^649P1 against wild-type CCR7 [1] [fold]	fold fluorescence of bound CCL19-S6^649P1 against wild-type CCR7 [2] [fold]	Kd [3] [nM]	Kd [4] [nM]	Kd [5] [nM]	Kd [6] [nM]
human CCL19-S6 site-specifically labelled with Dy649P1 (hCCL19-S6^649P1) (ligand, UniProt Q99731 22-98, looked up, Dy649P1 covalently and site-specifically attached (CoA-Dy649P1, SFP synthase)) GTNDAEDCCLSVTQKPIPGYIVRNFHYLLIKDGCRVPAVVFTTLRGRQLCAPPDQPWVERIIQRLQRTSAKMKRRSS	~2	~2				
native human CCL19 (hCCL19), unlabelled (ligand, UniProt Q99731 22-98, looked up) GTNDAEDCCLSVTQKPIPGYIVRNFHYLLIKDGCRVPAVVFTTLRGRQLCAPPDQPWVERIIQRLQRTSAKMKRRSS			~29	~31	~10	~7

From article PMC9101108, “Shifting CCR7 towards Its Monomeric Form Augments CCL19 Binding and Uptake” (Cells, 2022)
